Test results from PMC11665464.

Legend:
[1] = target: ALYREF-ΔNC, with the N- and C-terminal UAP56-binding motifs (UBMs) deleted (human) (UniProt Q86V81)
[2] = target: ALYREF-ΔNC, with the N- and C-terminal UAP56-binding motifs (UBMs) deleted (human) (UniProt Q86V81); experiment: pull-down; Nickel-NTA affinity pull-down: 2 ug His6-tagged ALYREF or variant with 4 ug UAP56 in 30 ul K buffer (20 mM KH2PO4 pH 7.4, 10% glycerol, 0.5 mM EDTA, 0.01% Igepal, 1 mM DTT) with 200 mM KCl and 15 mM imidazole, 30 min at 4 °C; captured on Ni-NTA resin, eluted with 2% SDS; SDS-PAGE, Coomassie stain

Sequence of UAP56 (Q13838 whole entry): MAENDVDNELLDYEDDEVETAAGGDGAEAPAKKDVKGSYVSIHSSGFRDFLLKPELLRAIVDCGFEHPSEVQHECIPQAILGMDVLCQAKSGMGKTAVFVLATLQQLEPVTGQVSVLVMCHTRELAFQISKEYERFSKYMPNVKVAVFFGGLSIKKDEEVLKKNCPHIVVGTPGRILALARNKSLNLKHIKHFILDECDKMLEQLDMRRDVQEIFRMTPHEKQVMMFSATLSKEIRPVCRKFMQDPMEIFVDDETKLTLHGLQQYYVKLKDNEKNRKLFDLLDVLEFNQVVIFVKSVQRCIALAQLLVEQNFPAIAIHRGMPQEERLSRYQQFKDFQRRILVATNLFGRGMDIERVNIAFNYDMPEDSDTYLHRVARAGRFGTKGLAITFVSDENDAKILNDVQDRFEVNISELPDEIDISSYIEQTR

“UAP56 (from UniProt Q13838 1-428) (enzyme)” showed a time course (5, 10, 15 min) of R-loop dissociation by 60 nM UAP56 with 6 nM ALYREF-ΔNC; fold increase at 5 min [1] of 12 fold and a percent of the ability to interact with UAP56 lost, against WT ALYREF [2] of 80%.
